Test: Pharmacokinetics (PK) of hGH variant-HSA conjugate, blood level by sandwich ELISA
Format: in vivo
Conditions: 7-week-old male ICR mice, 65 nmol/kg intravenous tail injection, blood 0.5-24 h
Description: For pharmacokinetic evaluation of the hGH variant-HSA conjugate, 7-week-old male ICR mice (n=6) were used. 65 nmol/kg each of hGH variant-HSA (L52) and hGH variant-HSA (Q141) was intravenously injected into the tail, blood collection was performed at 0.5, 4, 8, 12, and 24 hours after injection, and centrifugation was performed at 2,500 rpm for 10 minutes, followed by storing at −20° C. As a comparative group, Norditropin (somatropin, Novo Nordisk) was administered at the same concentration, and then compared with the above sample.
The hGH variant-HSA conjugate in blood was analyzed by sandwich ELISA (human growth hormone (GH) DouSet ELISA, R&D Systems). An anti-hGH capture antibody was added to coat an immunoplate at 4° C. overnight, and a reaction was blocked with 1% BSA in PBS at 37° C. for 1 hour. The blood sample collected and was diluted on the washed plate and left for 2 hours, and then treated with an anti-hGH detection antibody at room temperature for 2 hours. After treating the detection antibody with streptavidin-HRP at room temperature for 1 hour, 100 μL of a substrate was treated for 5 minutes and then 2N H2SO4 was treated to stop the reaction. Afterward, a microplate reader (Hidexsense, Finland) was used to measure an optical density at 450 nm. […]

## Norditropin: comparative group, Norditropin (somatropin, Novo Nordisk)
  half-life: 30 min
